# Results: patent US20220105163A1
# Experiments:
# [1] = biological target: Recombinant human IL-6 (human) (UniProt P05231); experiment: cell-based or functional assay
# [2] = biological target: IL-6 receptor on TF-1 cells (human) (UniProt P08887); experiment: cell-based or functional assay
# Sequence of IL-6 receptor on TF-1 cells (human) (P08887 20-468): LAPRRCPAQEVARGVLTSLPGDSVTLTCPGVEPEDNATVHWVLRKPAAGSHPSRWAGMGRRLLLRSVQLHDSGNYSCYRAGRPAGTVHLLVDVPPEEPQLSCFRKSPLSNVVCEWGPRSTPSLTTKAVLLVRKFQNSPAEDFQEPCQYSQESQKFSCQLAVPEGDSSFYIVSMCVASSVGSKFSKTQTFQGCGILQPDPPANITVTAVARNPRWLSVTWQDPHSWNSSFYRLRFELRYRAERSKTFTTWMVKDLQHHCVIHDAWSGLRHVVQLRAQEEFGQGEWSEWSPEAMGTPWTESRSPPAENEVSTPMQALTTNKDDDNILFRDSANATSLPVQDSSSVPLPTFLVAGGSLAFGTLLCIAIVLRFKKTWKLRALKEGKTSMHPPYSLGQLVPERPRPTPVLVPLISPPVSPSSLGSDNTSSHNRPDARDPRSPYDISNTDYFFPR
# Sequence of Recombinant human IL-6 (human) (P05231 30-212 limits assumed): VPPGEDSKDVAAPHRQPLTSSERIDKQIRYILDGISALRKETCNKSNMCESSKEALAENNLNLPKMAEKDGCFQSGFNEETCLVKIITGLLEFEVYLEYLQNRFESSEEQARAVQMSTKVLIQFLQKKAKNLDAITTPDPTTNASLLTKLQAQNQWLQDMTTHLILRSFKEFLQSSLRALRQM
"IC50 (µg/mL), IL-6 induced TF-1 proliferation [1]","IC50 (µg/mL), IL-6 induced TF-1 proliferation [2]",Substance
> 100 µg/mL,–,Non GP IgG (antibody)
–,0.365 µg/mL,Tocilizumab (antibody)
